Reference: USRE43497

Columns and labels:
Assay in all cases: cell-based or functional assay
[1] = biological target: SV40-AD
[2] = biological target: GAL4-AD (UniProt P04386)
[3] = biological target: Jab1-AD (GAL4 activation domain fusion with human p38^Jab1 amino acids 20-335) (human) (UniProt Q92905)
Jab1-AD (GAL4 activation domain fusion with human p38^Jab1 amino acids 20-335) (human), sequence (Q92905 20-334 limits assumed): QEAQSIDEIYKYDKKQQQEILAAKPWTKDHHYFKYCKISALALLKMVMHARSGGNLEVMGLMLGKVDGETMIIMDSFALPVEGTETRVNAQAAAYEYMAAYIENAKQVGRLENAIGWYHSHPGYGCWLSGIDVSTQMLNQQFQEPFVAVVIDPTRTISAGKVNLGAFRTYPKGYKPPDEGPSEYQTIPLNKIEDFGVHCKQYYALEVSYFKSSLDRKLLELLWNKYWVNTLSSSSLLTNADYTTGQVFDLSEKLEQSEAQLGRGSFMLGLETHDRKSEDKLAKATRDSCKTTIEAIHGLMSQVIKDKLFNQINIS

GAL4-AD, sequence (P04386 768-881 limits assumed): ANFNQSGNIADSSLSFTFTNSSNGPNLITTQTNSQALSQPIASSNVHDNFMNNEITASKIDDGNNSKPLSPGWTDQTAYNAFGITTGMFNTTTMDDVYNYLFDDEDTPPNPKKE

Q: Which beta-galactosidase activity, liquid media assay (yeast two-hybrid) [1] does the source give for p53-BD here?
A: 99 Miller units

Q: What does the source list for GAL4-BD (from UniProt P04386 1-147)?
A: beta-galactosidase activity, liquid media assay (yeast two-hybrid) [2]: 0.1 Miller units; beta-galactosidase activity, liquid media assay (yeast two-hybrid) [3]: 0.3 Miller units
